Measurements reported in US20090304754.

What was measured:
[1] = biological target: Flavobacterium meningosepticum prolyl endopeptidase, unmodified (UniProt P27028)
[2] = biological target: Flavobacterium meningosepticum prolyl endopeptidase conjugated with 20,000 Da PEG (UniProt P27028)
[3] = biological target: T1, 26mer peptide derived from gamma-gliadin
T1 chain: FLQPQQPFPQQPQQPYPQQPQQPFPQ

## chymotrypsin
[1]
  kcat/KM of chymotrypsin-catalyzed proteolysis of FM PEP (loss of PEP activity, Michaelis-Menten fit): The chymotrypsin proteolysis exhibited a kcat/KM of 5.0 for the unmodified PEP

## trypsin
[2]
  kcat/KM of trypsin-catalyzed proteolysis of FM PEP (loss of PEP activity, Michaelis-Menten fit): a kcat/KM of 3.4 was obtained for the PEGylated PEP
[1]
  kcat/KM of trypsin-catalyzed proteolysis of FM PEP (loss of PEP activity, Michaelis-Menten fit): a kcat/KM of 11.7 M^-1 sec-1 was obtained for unmodified PEP

B1: Flavobacterium meningosepticum prolyl endopeptidase, unmodified (protein)
chain: QNSNVLKYPETKKVSHTDTYFGTQVSDPYRWLEDDRAEDTKAWVQQEVKFTQDYLAQIPFRDQLKKQLMDIWNYEKISAPFKKGKYTYFSKNDGLQAQSVLYRKDAAGKTEVFLDPNKFSEKGTTSLASVSFNKKGTLVAYSISEGGSDWNKIIILDAETKKQLDETLLDVKFSGISWLGDEGFFYSSYDKPKEGSVLSGMTDKHKVYFHKLGTKQSQDELIIGGDKFPRRYIGAYVTDDQRYLVVSAANATNGNELYIKDLKNKTDFIPIITGFDSNVNVADTDGDTLYLFTDKDAPNKRLVKTTIQNPKAETWKDVIAETSEPLEINTGGGYFFATYMKDAIDQVKQYDKNGKLVRAIKLPGSGNASGFGGEKTEKDLYYSFTNYITPPTIFKYNVTTGNSEVYQKPKVKFNPENYVSEQVFYTSSDGTKIPMMISYKKGLKKDGKNPTILYSYGGFNISLQPAFSVVNAIWMENGGIYAVPNIRGGGEYGKKWHDAGTKMQKKNVFNDFIAAGEYLQKNGYTSKEYMALSGRSNGGLLVGATMTMRPDLAKVAFPGVGVLDMLRYNKFTAGAGWAYDYGTAEDSKEMFEYLKSYSPVHNVKAGTCYPSTMVITSDHDDRVVPAHSFKFGSELQAKQSCKNPILIRIETNAGHGAGRSTEQVVAENADLLSFALYEMGIKSLK
[3]
  time course of cleavage of the 26mer peptide, HPLC: PEGylated enzymes are able to cleave longer substrates at rates comparable to unmodified enzyme

B2: Flavobacterium meningosepticum prolyl endopeptidase conjugated with 5000 Da PEG (protein)
chain: QNSNVLKYPETKKVSHTDTYFGTQVSDPYRWLEDDRAEDTKAWVQQEVKFTQDYLAQIPFRDQLKKQLMDIWNYEKISAPFKKGKYTYFSKNDGLQAQSVLYRKDAAGKTEVFLDPNKFSEKGTTSLASVSFNKKGTLVAYSISEGGSDWNKIIILDAETKKQLDETLLDVKFSGISWLGDEGFFYSSYDKPKEGSVLSGMTDKHKVYFHKLGTKQSQDELIIGGDKFPRRYIGAYVTDDQRYLVVSAANATNGNELYIKDLKNKTDFIPIITGFDSNVNVADTDGDTLYLFTDKDAPNKRLVKTTIQNPKAETWKDVIAETSEPLEINTGGGYFFATYMKDAIDQVKQYDKNGKLVRAIKLPGSGNASGFGGEKTEKDLYYSFTNYITPPTIFKYNVTTGNSEVYQKPKVKFNPENYVSEQVFYTSSDGTKIPMMISYKKGLKKDGKNPTILYSYGGFNISLQPAFSVVNAIWMENGGIYAVPNIRGGGEYGKKWHDAGTKMQKKNVFNDFIAAGEYLQKNGYTSKEYMALSGRSNGGLLVGATMTMRPDLAKVAFPGVGVLDMLRYNKFTAGAGWAYDYGTAEDSKEMFEYLKSYSPVHNVKAGTCYPSTMVITSDHDDRVVPAHSFKFGSELQAKQSCKNPILIRIETNAGHGAGRSTEQVVAENADLLSFALYEMGIKSLK
[3]
  time course of cleavage of the 26mer peptide, HPLC (disappearance of the intact 26mer peak): both the 5 kDa and 20 kDa PEGylated FM PEPs were 8-12% faster in cleaving the peptide than the unmodified FM PEP

B3: Flavobacterium meningosepticum prolyl endopeptidase conjugated with 20,000 Da PEG (protein)
chain: QNSNVLKYPETKKVSHTDTYFGTQVSDPYRWLEDDRAEDTKAWVQQEVKFTQDYLAQIPFRDQLKKQLMDIWNYEKISAPFKKGKYTYFSKNDGLQAQSVLYRKDAAGKTEVFLDPNKFSEKGTTSLASVSFNKKGTLVAYSISEGGSDWNKIIILDAETKKQLDETLLDVKFSGISWLGDEGFFYSSYDKPKEGSVLSGMTDKHKVYFHKLGTKQSQDELIIGGDKFPRRYIGAYVTDDQRYLVVSAANATNGNELYIKDLKNKTDFIPIITGFDSNVNVADTDGDTLYLFTDKDAPNKRLVKTTIQNPKAETWKDVIAETSEPLEINTGGGYFFATYMKDAIDQVKQYDKNGKLVRAIKLPGSGNASGFGGEKTEKDLYYSFTNYITPPTIFKYNVTTGNSEVYQKPKVKFNPENYVSEQVFYTSSDGTKIPMMISYKKGLKKDGKNPTILYSYGGFNISLQPAFSVVNAIWMENGGIYAVPNIRGGGEYGKKWHDAGTKMQKKNVFNDFIAAGEYLQKNGYTSKEYMALSGRSNGGLLVGATMTMRPDLAKVAFPGVGVLDMLRYNKFTAGAGWAYDYGTAEDSKEMFEYLKSYSPVHNVKAGTCYPSTMVITSDHDDRVVPAHSFKFGSELQAKQSCKNPILIRIETNAGHGAGRSTEQVVAENADLLSFALYEMGIKSLK
[3]
  time course of cleavage of the 26mer peptide, HPLC (disappearance of the intact 26mer peak): both the 5 kDa and 20 kDa PEGylated FM PEPs were 8-12% faster in cleaving the peptide than the unmodified FM PEP
